The nature of the data set: soluble fraction after stress (log2 fold change); higher = more stays soluble; pooled small domains, quantitative proteomics. To be noted: stress: 75 degC.
In the case of “HMQEVKVRLKPDYLGEVLIKVISDKGELKAELFVSNSQVRSLLRAYAVEFQNQIRDQGYNFSEINVYR”, the “soluble fraction (log2)” value is -0.738.

For “HMQFAEIPNFSEMALQILRLQADGLSITKIAEALHMNPRTVKYHAQENYRKLQASNKSEALLAARNLNL”, the “soluble fraction (log2)” value was -1.85.

Turning to “HMQFEIGDTVRVHVNIREGERERVQMFEGTVIAKRGSGVSETFTVRRVSYGVGVERVFPVNSPNV”, the “soluble fraction (log2)” value was determined as 0.437.

Regarding “HMQFETVQDAFNHYRNASLEEIESRAAEIKGIIESDPEADVRALNIEIEGLHQAKQNILEKQKTK”, the “soluble fraction (log2)” value was -0.179.

Consider “HMQFLGKVTVTHARQANLRAQPSMDAAIVGKVNPGEVYNVVSIPKTSWYEIQLQNGKTVFIAAGMVSFRM”, for which the “soluble fraction (log2)” value was -0.441.

Regarding “HMQFSAVVLDMETRRQVAGVAVYINPKGVVKTDMRGRFVIDGAFNSVTLVRQGYESLTLERSEMTDSIWM”, the “soluble fraction (log2)” value was -1.64.

Consider “HMQGEASDAQLKAIFAIARKLGITDDFEVHRKASRLAGVPEPEVLPSLKSLTYAQASAVIKALQEELE”, for which the “soluble fraction (log2)” value was determined as 0.248.

With “HMQGENDVTIDPKKLTIGDLAKEISKIEDSEELNNILVAEKEGKGRKGAINAITERIENVSGGTG”, the “soluble fraction (log2)” value was 0.0455.

For “HMQGLIGEQKAIQIALSRVPGAKPEHVRELKLDYDDGMQLYEGEIFYNFREYEFEINAVTGEVVGWEI”, the “soluble fraction (log2)” value is -1.01.

As to “HMQHRSRALHLQEELVRRYYDQAIAPFMIFWEMKANVTLDQLKELRAVVSPSLNEHPYTKQLDEYIRLAE”, the “soluble fraction (log2)” value is -0.595.

As to “HMQIEQVDYGTFMTMIDDKKIDKVEIKDNQILFIGKDDNKKYKTGIVQDPQLAERLHASGAVFSQDI”, the “soluble fraction (log2)” value was 0.261.

On to “HMQIIGEQNQKDFIALFGAILRMRNLLLSFDEFKGNELISERDLQDYLGRYQDLRDEWRNKRRER”, for which the “soluble fraction (log2)” value is -0.0814.

For the sequence “HMQINDSSVVQKAVNDVIDQNSKAVSDYWDGKEGAAKFLMGQVMKLTRGQANPDLANQLILTRLQQERV”, the “soluble fraction (log2)” value worked out at 0.437.

For “HMQISDEAALLAIVDRVIADNQGPLANYLGGKQSLLGWFVGQVMRATRGQAIPAVVNRLVGERLAAQREE”, the “soluble fraction (log2)” value was -0.877.

With “HMQISDESQLREVVSKILEENEQSVIDYKNGKTRAMGFIIGQVMKATRGKANPQLVNEIVKEMLDE”, the “soluble fraction (log2)” value is 0.0956.

For the sequence “HMQISDTASIQEIAKEIIKSNPKAVEDYKKGKENALQFLVGQLMTKTKGTVHPGAARTILGDILK”, the “soluble fraction (log2)” value was -0.0025.

As to “HMQISDTSELEAVVQDILKANMDVVAKIKAGKTNSANFLMGQVMKLTKGRAKPDTVLQLILDAVKQ”, the “soluble fraction (log2)” value is -0.943.

With “HMQISLAAARVNAGLTQEEVAKAMKVGKQTIVSWEKGNSEPKMSQSRELSELYKIPLDYIFYP”, the “soluble fraction (log2)” value is -0.5.

In the case of “HMQITDSGAIETIIDKIIADNPGQVTQYLSGKDKVFGFFVGQTMKASQGKANPAEVNKILQEKLK”, the “soluble fraction (log2)” value was -0.0499.

With “HMQITQSSEPIDVSALRLGMFIHLEGGWLSHPFPRSSFKITSEDQLVTLRSLGISVLRWSPELSDPE”, the “soluble fraction (log2)” value was -3.52.

Consider “HMQIVPVDYSTFMQSIDDKTVDHVEIQSNQILYTVKDDHKKYKTGIMNDPTLAQRLMESGATFTQD”, for which the “soluble fraction (log2)” value was found to be 0.12.

Turning to “HMQKAEQIGSLLREKRKSMGLTQDELAQQVEVRRQTLADLELGKNVGSHLLIKVMEHLGVGFDLL”, the “soluble fraction (log2)” value is -0.738.

“HMQKEIKVPDVANMALSEAVEKLQNEGFKVADEQKEVSSDEIEEGKVVKTSPVAGTKKTKGSEITIYISSG”: the “soluble fraction (log2)” value came out at 0.26.

As to “HMQKFLEATGENRDAAVENALEQLGLERDDVSVEVLEIGKKGFLGIGATPARVRVTYEAPDI”, the “soluble fraction (log2)” value is 0.197.

Regarding “HMQKKEVTVPEVRSKSLKEAAQILSEQNLKYETEPVNVENPDMVVIDQFPKPGGKISEQSVIILYLR”, the “soluble fraction (log2)” value came out at 0.697.

Turning to “HMQKLNIEEQIVYDIIFKNKELSANEIQIKSGIKTSILNALLINLEIKQYIKLKFGNFYEIK”, the “soluble fraction (log2)” value was found to be 0.181.

For “HMQKMPEMQILPNGKVKLPDFSGINMRKAAELLQYGKLRLQPYGSGTAYQQKPAAGTEVDEGTVVEIWF”, the “soluble fraction (log2)” value is -0.83.

As for “HMQKNFYQILGVDSKASPATINAAYERAKSRVIQSGLEDPDTMALLRDAWETLADPGDRAAYDESLAT”, the “soluble fraction (log2)” value is 0.0744.

As to “HMQKPELLAPAGSLEKAKTAFKYGADAVYMGTSNLSLRSRVTVDDDELIKTIEYAHSINKKVYAALNIYAR”, the “soluble fraction (log2)” value is 0.249.

For the sequence “HMQKPWFYESSGQRKGGFSEQEMVGLITDGEITHGAIVWRNGLSDWTKLEQTELAAHLDKTA”, the “soluble fraction (log2)” value is -0.11.

Regarding “HMQKRDQKKRANMLDSLKVGTRIVTIGGIFGEIAKIKDDRIRIKVAEDVEIWIRRAAVGTVIT”, the “soluble fraction (log2)” value is -1.94.

For “HMQKTPFEIMTIYKDQILEMLGKDLTATEISIVLKKKGEKVHPREIRKFQLQHYEEVQDMRKKWRE”, the “soluble fraction (log2)” value was -1.17.

Take “HMQKWILVNKQGRLSGILDHRAFNTRESATAWFQRTSDISGGTIKIDDYYYVLKNEEYKLLKE”: the “soluble fraction (log2)” value is -3.09.

As for “HMQKYEDIINVTRERLQNKFYSQTVIPTDDDIYIWLDKVAILEEIKLSKEDRQMLFNLLKKEAT”, the “soluble fraction (log2)” value was -1.35.

With “HMQLGQMIVKLRKEQGLTQETFAKKFNVTRQTVSNWENEKSYPDLHTLVKISDEFHLSLDILLK”, the “soluble fraction (log2)” value was -3.14.

On to “HMQLGSILAYKFPQFGGIDGAWQVRDDSNGTGPYIAFWDAKTIGRGMPTEDELTAWAQEYEA”, for which the “soluble fraction (log2)” value was -0.206.

Turning to “HMQLPTPEDLKKRRNELGLTQSDLAKRAGVSQPLIARIESGDVDPRLSTVRKILDAFEEVEKEQQ”, the “soluble fraction (log2)” value stood at 0.0518.

As for “HMQLSASQQQILNHAAVNTDGKLVWFPETLKGGARKKVLDSLFSRALITTDGTHWFVAAEGYEALGIP”, the “soluble fraction (log2)” value is -1.06.

Consider “HMQLTDLSALEAIIKEVLAANPKSVEDYKSGKEKAFGSLVGQAMKATKGKANPETVNSLLRKNLN”, for which the “soluble fraction (log2)” value was found to be 0.729.

In the case of “HMQLTDSDFTRLYTYVKNSYGIDLSKKKQLISSRLTNMLIQQGYRDFTQYTDEIISGKNPEMVSAMLNRLT”, the “soluble fraction (log2)” value was -1.33.

Take “HMQLTPAQHAILAKAIHSSDGKIEWFPDNVKGGARKKVLEGMFNRALITPDGEGWRIAAEGYDALGMPRP”: the “soluble fraction (log2)” value is -0.097.

As to “HMQLVGSSAAVLIPAPAGGLGKIRLEFRGQTIDLIAKATDGGALIEGGAVTIVDVRDGQADVSV”, the “soluble fraction (log2)” value was -0.939.

Consider “HMQMMDATLKIPPSMGKLRGTLYELNSVTSEDVDENGQLALHVRLSSVDWQRLKKRFDSNLDELIVQKN”, for which the “soluble fraction (log2)” value is -0.219.

As to “HMQMPLTMATMGEVNKIVKVGGNEETRRFLANLGFVAGAEVVVLSKIGGNVIVNVKDSRVAVNEDMARHIM”, the “soluble fraction (log2)” value was -1.19.

For “HMQMSDTAAIGKIVDEVFAENPAALEDYAKGKTNVVDWLTGQVMKKSRGQANPGIASELVQKRLADF”, the “soluble fraction (log2)” value came to 0.0922.

Turning to “HMQMSDTGAIEAMVKEALDENPQAIEDFKNGKGKALGFLMGQVMKKSKGQANGGIVNKLIKEELQKRIG”, the “soluble fraction (log2)” value amounted to 0.292.

Turning to “HMQMTKSEFLDALRRALNGNMAAASVDDNIRFYDSYFYTEETKGRSEAEILSELGDPRILARTLIDAAD”, the “soluble fraction (log2)” value is -0.0328.

Consider “HMQNEIQQLAIDLIARAHKSGASDIHIVDTGTYTRIKFRVLGLLREDSQMEAETGRQMISTIYGILG”, for which the “soluble fraction (log2)” value was -0.0698.

“HMQNEKLSYFVTETIVTERADLFITKKFPQFSRSQIQKLINSGNITINSNPIKASTEIINKDNIEITIPV”: the “soluble fraction (log2)” value was -2.15.

Regarding “HMQNESGLFTMSDLWEAGLMGSENASRKRAAVGAFLGIGFGNGKQFLKRLNHFGVTKEEWESALEQLGE”, the “soluble fraction (log2)” value is -1.18.

Take “HMQNEVMPYSTFLSEVNSGNVTKVKIDHEQLTGTLKSGKQFTTYILDAATLPSIVAEKGVEVEVVPP”: the “soluble fraction (log2)” value is 0.506.

As to “HMQNGNYVVQRQDSLWSIAARISGQTHQPIGEVMNHIKALNEHAFVGGNVNRLRTGTNLNLG”, the “soluble fraction (log2)” value was -0.224.

On to “HMQNKRQEQLLALLAERRDYMTSRQLAEILQVSDRTIRSDVEAINRRSSPPPIESNVRQGYRLNPEA”, for which the “soluble fraction (log2)” value is -0.142.

With “HMQNNIEFTVLEEDAQKRLDVLLSEKTALSRSASASLIEEGGVLVNGRKEPKKYKPVRGEIITAILPE”, the “soluble fraction (log2)” value was 0.504.

As to “HMQNNTIAFSKFLQEVDNGRVVQVEIQGNNINGILSDGSKFNTYSPNYPALVEKLSEKNVNIVASPV”, the “soluble fraction (log2)” value is 0.0941.

On to “HMQNPDHLLALAAAAQAAIELGRPDEAEAYYRHLVEVYGVEMASQKPEYLDHSGITNDLRNVAEGFLVG”, for which the “soluble fraction (log2)” value was -1.06.

As for “HMQNRIVNTTQGLAADKRGLLVADETGHTTRPGIFASGDVVNGARTVVEAVAHSKIVAESMHQYMQ”, the “soluble fraction (log2)” value amounted to 0.654.

Take “HMQNSLKAFRVKRGLTTSALSRLTNGEFSTSRISNYETGVRALTIDAAKKLAPHLGASPAQLLNL”: the “soluble fraction (log2)” value is -0.694.

With “HMQNSPVFAASDIEDIRVGMTVEHQRFGQGRVMSIEGNGPNKKTTVLFEGIGEKQLLLQYAKLKIV”, the “soluble fraction (log2)” value was -0.664.

In the case of “HMQNYLLFEEAKNIVNTLNLTNEKDWSEFIKKDFTYKNQIPIFPNQYYKHKGWVDWNDWLGINK”, the “soluble fraction (log2)” value is -1.35.

As for “HMQNYTTIIGVIELRLNDISYDNVRKRYHIGRSGITLIMDRYRDSGLSLEDLKQMTPEKVVDLFYPR”, the “soluble fraction (log2)” value was -2.55.

On to “HMQPAALEAQVIKLVRLHAPIKARQLATILANEFGQHVDRSTVNSLLYQLRAQGKVAQNAAYQWSLT”, for which the “soluble fraction (log2)” value is -2.01.

On to “HMQPEKELAPLIGQRVSVRLHDGDGGYRDLLGELESPDSIRKKNGEIAFFDPAKIAALRVVV”, for which the “soluble fraction (log2)” value is 0.0667.

Turning to “HMQPGDRVDALIVGVSGEHVFLDVGGKSEGVMAAAELRNEAGELSAAEGDRVQVYLLSNRNGELIFTA”, the “soluble fraction (log2)” value stood at 0.205.

On to “HMQPHLSADEEHLLKILGSDTMHIDALVKRSTLETSNALAALAFLEMKGLVKNIGNMHYIRTYR”, for which the “soluble fraction (log2)” value was -0.552.

Turning to “HMQPIAVHIGTENPMKSLSDLSVVRAQFTSGGRVIGSVAVLGPTRMQYSRIVGMMRFMQQRLDLLLKG”, the “soluble fraction (log2)” value was -0.0629.

Turning to “HMQPKKLNMYYDYVRQLLESHPYLSAAQIEDRLKEEFTELPMVHSKTVFNFVENIRLQHGINKHA”, the “soluble fraction (log2)” value is -0.219.

Turning to “HMQPLRQGDFVTSEVVKVQDGTAVLRTAQGTLLSASLTGNLGLLPGDRVETVVVEASPGRFVLRVLDIIR”, the “soluble fraction (log2)” value was -0.747.

Consider “HMQPPLTPRELGVLQWAAEGKTTRDTSAILQIHQRTVEMHLKSAREKLDALNTTHAVARALAHGFILPPS”, for which the “soluble fraction (log2)” value was -0.0091.

Consider “HMQPPVDGNEIMEIFGIKGSPVIGVIKSTIKNAILDGIIAPNDREAALELMFRIADENGLKPVVTQTQ”, for which the “soluble fraction (log2)” value is -0.0513.

The values are drawn from the domain aggregation screens of Martell et al. (2025).
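Further: 20 min heating vs room temperature control held 20 min.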
